For assay [1], the system named is GFP-14-3-3β and its binding proteins. The experiment in a line: GFP-14-3-3β co-IP with LC-MS/MS label-free quantification, untreated versus PP1c-treated. The settings on record: PP1 vs untreated; LFQ intensities; 3 replicates each. Details: species or system human.
Assay [2] has as its system GFP-14-3-3β. The assay can be described thus: GFP-14-3-3β co-IP with LC-MS/MS, untreated GFP-14-3-3β versus GFP control (14-3-3 interactome). To be noted: untreated vs GFP; LFQ intensities; 3 replicates each. The class given is binding, human.

B1: PHLDB2 (protein, UniProt Q86SQ0 1-1253, looked up)
Pleckstrin homology-like …: MEEHSYIQKELDLQNGSLEEDSVVHSVENDSQNMMESLSPKKYSSSLRFKANGDYSGSYLTLSQPVPAKRSPSPLGTSVRSSPSLAKIQGSKQFSYDGTDKNIPMKPPTPLLNTTSSLSGYPLGRADFDHYTGRDSERALRLSEKPPYSKYSSRHKSHDNVYSLGGLEGRKASGSLLAMWNGSSLSDAGPPPISRSGAASMPSSPKQARKMSIQDSLALQPKLTRHKELASENINLRTRKYSSSSLSHMGAYSRSLPRLYRATENQLTPLSLPPRNSLGNSKRTKLGEKDLPHSVIDNDNYLNFSSLSSGALPYKTSASEGNPYVSSTLSVPASPRVARKMLLASTSSCASDDFDQASYVGTNPSHSLLAGESDRVFATRRNFSCGSVEFDEADLESLRQASGTPQPALRERKSSISSISGRDDLMDYHRRQREERLREQEMERLERQRLETILSLCAEYTKPDSRLSTGTTVEDVQKINKELEKLQLSDEESVFEEALMSPDTRYRCHRKDSLPDADLASCGSLSQSSASFFTPRSTRNDELLSDLTRTPPPPSSTFPKASSESSYLSILPKTPEGISEEQRSQELAAMEETRIVILNNLEELKQKIKDINDQMDESFRELDMECALLDGEQKSETTELMKEKEILDHLNRKIAELEKNIVGEKTKEKVKLDAEREKLERLQELYSEQKTQLDNCPESMREQLQQQLKRDADLLDVESKHFEDLEFQQLEHESRLDEEKENLTQQLLREVAEYQRNIVSRKEKISALKKQANHIVQQAQREQDHFVKEKNNLIMMLQREKENLCNLEKKYSSLSGGKGFPVNPNTLKEGYISVNEINEPCGNSTNLSPSTQFPADADAVATEPATAVLASQPQSKEHFRSLEERKKQHKEGLYLSDTLPRKKTTSSISPHFSSATMGRSITPKAHLPLGQSNSCGSVLPPSLAAMAKDSESRRMLRGYNHQQMSEGHRQKSEFYNRTASESNVYLNSFHYPDHSYKDQAFDTLSLDSSDSMETSISACSPDNISSASTSNIARIEEMERLLKQAHAEKTRLLESREREMEAKKRALEEEKRRREILEKRLQEETSQRQKLIEKEVKIRERQRAQARPLTRYLPVRKEDFDLRSHVETAGHNIDTCYHVSITEKTCRGFLIKMGGKIKTWKKRWFVFDRNKRTFSYYADKHETKLKGVIYFQAIEEVYYDHLKNANKSPNPLLTFSVKTHDRIYYMVAPSPEAMRIWMDVIVTGAEGYTHFLL
B1: the “Difference (log2), PP1 vs untreated” value in assay [1] is recorded as 0.5277 log2. Also, in assay [2], the “Difference (log2), untreated vs GFP” value was determined as 1.653 log2.

B2: PABPC4 (protein, UniProt Q13310 1-644, looked up)
Polyadenylate-binding protein …: MNAAASSYPMASLYVGDLHSDVTEAMLYEKFSPAGPVLSIRVCRDMITRRSLGYAYVNFQQPADAERALDTMNFDVIKGKPIRIMWSQRDPSLRKSGVGNVFIKNLDKSIDNKALYDTFSAFGNILSCKVVCDENGSKGYAFVHFETQEAADKAIEKMNGMLLNDRKVFVGRFKSRKEREAELGAKAKEFTNVYIKNFGEEVDDESLKELFSQFGKTLSVKVMRDPNGKSKGFGFVSYEKHEDANKAVEEMNGKEISGKIIFVGRAQKKVERQAELKRKFEQLKQERISRYQGVNLYIKNLDDTIDDEKLRKEFSPFGSITSAKVMLEDGRSKGFGFVCFSSPEEATKAVTEMNGRIVGSKPLYVALAQRKEERKAHLTNQYMQRVAGMRALPANAILNQFQPAAGGYFVPAVPQAQGRPPYYTPNQLAQMRPNPRWQQGGRPQGFQGMPSAIRQSGPRPTLRHLAPTGSECPDRLAMDFGGAGAAQQGLTDSCQSGGVPTAVQNLAPRAAVAAAAPRAVAPYKYASSVRSPHPAIQPLQAPQPAVHVQGQEPLTASMLAAAPPQEQKQMLGERLFPLIQTMHSNLAGKITGMLLEIDNSELLHMLESPESLRSKVDEAVAVLQAHHAKKEAAQKVGAVAAATS
For the molecule B2, the “Difference (log2), PP1 vs untreated” value in assay [1] amounted to 0.5259 log2. Besides, the “Difference (log2), untreated vs GFP” value in assay [2] came out at 2.4022 log2.

B3: COPA (protein, UniProt P53621 1-1224, looked up)
Coatomer subunit alpha: MLTKFETKSARVKGLSFHPKRPWILTSLHNGVIQLWDYRMCTLIDKFDEHDGPVRGIDFHKQQPLFVSGGDDYKIKVWNYKLRRCLFTLLGHLDYIRTTFFHHEYPWILSASDDQTIRVWNWQSRTCVCVLTGHNHYVMCAQFHPTEDLVVSASLDQTVRVWDISGLRKKNLSPGAVESDVRGITGVDLFGTTDAVVKHVLEGHDRGVNWAAFHPTMPLIVSGADDRQVKIWRMNESKAWEVDTCRGHYNNVSCAVFHPRQELILSNSEDKSIRVWDMSKRTGVQTFRRDHDRFWVLAAHPNLNLFAAGHDGGMIVFKLERERPAYAVHGNMLHYVKDRFLRQLDFNSSKDVAVMQLRSGSKFPVFNMSYNPAENAVLLCTRASNLENSTYDLYTIPKDADSQNPDAPEGKRSSGLTAVWVARNRFAVLDRMHSLLIKNLKNEITKKVQVPNCDEIFYAGTGNLLLRDADSITLFDVQQKRTLASVKISKVKYVIWSADMSHVALLAKHAIVICNRKLDALCNIHENIRVKSGAWDESGVFIYTTSNHIKYAVTTGDHGIIRTLDLPIYVTRVKGNNVYCLDRECRPRVLTIDPTEFKFKLALINRKYDEVLHMVRNAKLVGQSIIAYLQKKGYPEVALHFVKDEKTRFSLALECGNIEIALEAAKALDDKNCWEKLGEVALLQGNHQIVEMCYQRTKNFDKLSFLYLITGNLEKLRKMMKIAEIRKDMSGHYQNALYLGDVSERVRILKNCGQKSLAYLTAATHGLDEEAESLKETFDPEKETIPDIDPNAKLLQPPAPIMPLDTNWPLLTVSKGFFEGTIASKGKGGALAADIDIDTVGTEGWGEDAELQLDEDGFVEATEGLGDDALGKGQEEGGGWDVEEDLELPPELDISPGAAGGAEDGFFVPPTKGTSPTQIWCNNSQLPVDHILAGSFETAMRLLHDQVGVIQFGPYKQLFLQTYARGRTTYQALPCLPSMYGYPNRNWKDAGLKNGVPAVGLKLNDLIQRLQLCYQLTTVGKFEEAVEKFRSILLSVPLLVVDNKQEIAEAQQLITICREYIVGLSVETERKKLPKETLEQQKRICEMAAYFTHSNLQPVHMILVLRTALNLFFKLKNFKTAATFARRLLELGPKPEVAQQTRKILSACEKNPTDAYQLNYDMHNPFDICAASYRPIYRGKPVEKCPLSGACYSPEFKGQICRVTTVTEIGKDVIGLRISPLQFR
On to B3, for which, in assay [1], the “Difference (log2), PP1 vs untreated” value is recorded as 0.5643 log2. The “Difference (log2), untreated vs GFP” value in assay [2] is recorded as -0.09761 log2.

B4: RCN1 (protein, UniProt Q15293 30-331, looked up)
Reticulocalbin-1: KPTVRKERVVRPDSELGERPPEDNQSFQYDHEAFLGKEDSKTFDQLTPDESKERLGKIVDRIDNDGDGFVTTEELKTWIKRVQKRYIFDNVAKVWKDYDRDKDDKISWEEYKQATYGYYLGNPAEFHDSSDHHTFKKMLPRDERRFKAADLNGDLTATREEFTAFLHPEEFEHMKEIVVLETLEDIDKNGDGFVDQDEYIADMFSHEENGPEPDWVLSEREQFNEFRDLNKDGKLDKDEIRHWILPQDYDHAQAEARHLVYESDKNKDEKLTKEEILENWNMFVGSQATNYGEDLTKNHDEL
For the molecule B4, the “Difference (log2), PP1 vs untreated” value in assay [1] was determined as 0.5407 log2. The “Difference (log2), untreated vs GFP” value in assay [2] is -0.5528 log2.

B5: DHX29 (protein, UniProt Q7Z478 1-1369, looked up)
ATP-dependent RNA helicase …: MGGKNKKHKAPAAAVVRAAVSASRAKSAEAGIAGEAQSKKPVSRPATAAAAAAGSREPRVKQGPKIYSFNSTNDSSGPANLDKSILKVVINNKLEQRIIGVINEHKKQNNDKGMISGRLTAKKLQDLYMALQAFSFKTKDIEDAMTNTLLYGGDLHSALDWLCLNLSDDALPEGFSQEFEEQQPKSRPKFQSPQIQATISPPLQPKTKTYEEDPKSKPKKEEKNMEVNMKEWILRYAEQQNEEEKNENSKSLEEEEKFDPNERYLHLAAKLLDAKEQAATFKLEKNKQGQKEAQEKIRKFQREMETLEDHPVFNPAMKISHQQNERKKPPVATEGESALNFNLFEKSAAATEEEKDKKKEPHDVRNFDYTARSWTGKSPKQFLIDWVRKNLPKSPNPSFEKVPVGRYWKCRVRVIKSEDDVLVVCPTILTEDGMQAQHLGATLALYRLVKGQSVHQLLPPTYRDVWLEWSDAEKKREELNKMETNKPRDLFIAKLLNKLKQQQQQQQQHSENKRENSEDPEESWENLVSDEDFSALSLESANVEDLEPVRNLFRKLQSTPKYQKLLKERQQLPVFKHRDSIVETLKRHRVVVVAGETGSGKSTQVPHFLLEDLLLNEWEASKCNIVCTQPRRISAVSLANRVCDELGCENGPGGRNSLCGYQIRMESRACESTRLLYCTTGVLLRKLQEDGLLSNVSHVIVDEVHERSVQSDFLLIILKEILQKRSDLHLILMSATVDSEKFSTYFTHCPILRISGRSYPVEVFHLEDIIEETGFVLEKDSEYCQKFLEEEEEVTINVTSKAGGIKKYQEYIPVQTGAHADLNPFYQKYSSRTQHAILYMNPHKINLDLILELLAYLDKSPQFRNIEGAVLIFLPGLAHIQQLYDLLSNDRRFYSERYKVIALHSILSTQDQAAAFTLPPPGVRKIVLATNIAETGITIPDVVFVIDTGRTKENKYHESSQMSSLVETFVSKASALQRQGRAGRVRDGFCFRMYTRERFEGFMDYSVPEILRVPLEELCLHIMKCNLGSPEDFLSKALDPPQLQVISNAMNLLRKIGACELNEPKLTPLGQHLAALPVNVKIGKMLIFGAIFGCLDPVATLAAVMTEKSPFTTPIGRKDEADLAKSALAMADSDHLTIYNAYLGWKKARQEGGYRSEITYCRRNFLNRTSLLTLEDVKQELIKLVKAAGFSSSTTSTSWEGNRASQTLSFQEIALLKAVLVAGLYDNVGKIIYTKSVDVTEKLACIVETAQGKAQVHPSSVNRDLQTHGWLLYQEKIRYARVYLRETTLITPFPVLLFGGDIEVQHRERLLSIDGWIYFQAPVKIAVIFKQLRVLIDSVLRKKLENPKMSLENDKILQIITELIKTENN
Consider B5, for which the “Difference (log2), PP1 vs untreated” value in assay [1] worked out at 0.5459 log2. Besides, the “Difference (log2), untreated vs GFP” value in assay [2] came out at 1.239 log2.

B6: SLC2A1 (protein, UniProt P11166 1-492, looked up)
Solute carrier family 2, …: MEPSSKKLTGRLMLAVGGAVLGSLQFGYNTGVINAPQKVIEEFYNQTWVHRYGESILPTTLTTLWSLSVAIFSVGGMIGSFSVGLFVNRFGRRNSMLMMNLLAFVSAVLMGFSKLGKSFEMLILGRFIIGVYCGLTTGFVPMYVGEVSPTALRGALGTLHQLGIVVGILIAQVFGLDSIMGNKDLWPLLLSIIFIPALLQCIVLPFCPESPRFLLINRNEENRAKSVLKKLRGTADVTHDLQEMKEESRQMMREKKVTILELFRSPAYRQPILIAVVLQLSQQLSGINAVFYYSTSIFEKAGVQQPVYATIGSGIVNTAFTVVSLFVVERAGRRTLHLIGLAGMAGCAILMTIALALLEQLPWMSYLSIVAIFGFVAFFEVGPGPIPWFIVAELFSQGPRPAAIAVAGFSNWTSNFIVGMCFQYVEQLCGPYVFIIFTVLLVLFFIFTYFKVPETKGRTFDEIASGFRQGGASQSDKTPEELFHPLGADSQV
For the molecule B6, in assay [1], the “Difference (log2), PP1 vs untreated” value is on record as 0.5451 log2. The “Difference (log2), untreated vs GFP” value in assay [2] is listed as -0.3989 log2.

B7: HNRNPD (protein, UniProt Q14103 2-355, looked up)
Heterogeneous nuclear …: SEEQFGGDGAAAAATAAVGGSAGEQEGAMVAATQGAAAAAGSGAGTGGGTASGGTEGGSAESEGAKIDASKNEEDEGHSNSSPRHSEAATAQREEWKMFIGGLSWDTTKKDLKDYFSKFGEVVDCTLKLDPITGRSRGFGFVLFKESESVDKVMDQKEHKLNGKVIDPKRAKAMKTKEPVKKIFVGGLSPDTPEEKIREYFGGFGEVESIELPMDNKTNKRRGFCFITFKEEEPVKKIMEKKYHNVGLSKCEIKVAMSKEQYQQQQQWGSRGGFAGRARGRGGGPSQNWNQGYSNYWNQGYGNYGYNSQGYGGYGGYDYTGYNNYYGYGDYSNQQSGYGKVSRRGGHQNSYKPY
Turning to B7, the “Difference (log2), PP1 vs untreated” value in assay [1] came to 0.5387 log2. The “Difference (log2), untreated vs GFP” value in assay [2] was 0.1919 log2.

For the origin of these results see PMC7367873, “Dissecting the sequence determinants for dephosphorylation by the catalytic subunits of phosphatases PP1 and PP2A” (Nature Communications, 2020).
